Assays:
Test in all cases: split reporter
[1] = biological target: zipped β1–10 of ZipGFP with TEV cleavage sequence (E5-β1–10-K5), cleaved by co-expressed TEV protease
[2] = biological target: β1–10 part of ZipGFP with TEV cleavage sequence (E5-β1–10-K5), cleaved by TEV protease, purified
[3] = biological target: zipped β1–10 of the ZipGFP caspase reporter (E5-β1–10-K5 with DEVD), cleaved upon apoptosis

Substance “zipped β11 of ZipGFP with TEV cleavage sequence (K5-β11-E5), cleaved by co-expressed TEV protease” has a fold increase of green fluorescence over the uncleaved reporter [1] of 10 fold.
With “β11 part of ZipGFP with TEV cleavage sequence (K5-β11-E5), cleaved by TEV protease, purified” the time to half-maximal fluorescence (T1/2) after mixing [2] was 40 min.
Substance “zipped β11 of the ZipGFP caspase reporter (K5-β11-E5 with DEVD), cleaved upon apoptosis” has a fold increase of green fluorescence (normalized to mCherry) upon apoptosis [3] of 5 to 10 fold.
